Assays:
[1] = test system: soybean (A3555), non-transgenic or expressing H_N10 (SEQ ID NO:4); assay: R0 soybean sprayed with flumioxazin; assay type: in vivo; conditions: 210 g/ha, V3, 8 days
Protocol: In soybean, excised embryos (A3555) were transformed with the transformation constructs 1 and 11 using A. tumefaciens and standard methods known in the art. […] Regenerated R0 transgenic plantlets were grown in the greenhouse. […] The herbicide was sprayed at the V3 developmental stage with three fully developed trifoliate leaves and injury ratings were assessed 8 days after treatment. The percentage of plants that were deemed highly tolerant (15% or less injury) was noted.

[2] = test system: C=Cc1c2[nH]c(c1C)Cc1[nH]c(c(CCC(=O)O)c1C)Cc1[nH]c(c(C)c1CCC(=O)O)Cc1[nH]c(c(C)c1C=C)C2; assay: purified protein, by the assay type; conditions: other: apparent Km for protoporphyrinogen, pH 7.4, 37° C.
[3] = test system: H_N110 (SEQ ID NO: 10), microbial HemG protoporphyrinogen oxidase; assay: PPO enzyme assay (bacterial extract); conditions: apparent Km for protoporphyrinogen; pH 7.4, 37° C.
[4] = test system: Soybean (Glycine max) protoporphyrinogen oxidase (PPO), wild type; assay: PPO enzyme assay (plastid extract); assay type: biochemical; conditions: apparent Km for protoporphyrinogen; pH 7.4, 30° C.
[5] = test system: Maize (Zea mays) protoporphyrinogen oxidase (PPO), wild type; assay: PPO enzyme assay (plastid extract); assay type: biochemical; conditions: apparent Km for protoporphyrinogen; pH 7.4, 30° C.
[6] = test system: H_N60 (SEQ ID NO: 3), microbial HemG protoporphyrinogen oxidase; assay: PPO enzyme assay (bacterial extract); conditions: apparent Km for protoporphyrinogen; pH 7.4, 37° C.
[7] = test system: Waterhemp (Amaranthus tuberculata) protoporphyrinogen oxidase (PPO), wild type; assay: PPO enzyme assay (plastid extract); assay type: biochemical; conditions: apparent Km for protoporphyrinogen; pH 7.4, 30° C.
[8] = test system: transgenic maize plants; assay: R0 transgenic maize 40 g/ha S-3100 spray test; assay type: in vivo; conditions: for Average Injury / Highly Tolerant (number of plants with less than 10% injury): 40 grams/ha S-3100 at V5, 7 days after treatment, R0 plants; for injury rates when expressed in transgenic plants (crop tolerance to a PPO herbicide): R0 transgenic maize data
From the text: H_N60 (SEQ ID NO:3). […] These five constructs had the same promoter plus leader plus intron combination, with two different targeting peptide (TP) sequences, and the same 3′UTR sequence. Leaf samples were taken from the R0 plants and analyzed by PCR to determine the transgene copy number. Single copy plants for up to 12 unique events per construct were transplanted to pots, selfed and outcrossed to generate R1 and F1 seed, respectively, for future testing. Multi-copy plants and extra single copy plants were sprayed with 40 grams/ha 5-3100 at approximately the V5 growth stage and injury ratings were taken 7 days after treatment. The average percent (%) injury for all plants expressing each PPO enzyme and the number of plants that were deemed highly tolerant (less than 10% injury) was noted, where each plant is a unique single or multi-copy transformant.

[9] = test system: soybean plantlets; assay: High-throughput soybean screening for herbicide tolerance (plantlets); assay type: in vivo, soybean (A3555); parameters: key: 0 for poor tolerance, high damage, low green coloration; 1 for some tolerance, average damage, moderate green coloration; 2 for good tolerance, low damage, high green coloration; conditions: S-3100 spray five weeks post-transformation, scored day four
From the text: A high-throughput plant transformation and screening method was used to evaluate large numbers of constructs in transgenic plants for herbicide tolerance in early transformation plantlet tissue. This allowed for faster and higher volume screening of construct configurations and PPO enzymes.
This permitted the side-by-side comparison of seven different HemG PPO enzymes with thirty-seven different targeting peptides using the same promoter and 3′UTR elements for gene expression. These plant transformation constructs were used to transform soybean excised embryos (germplasm A3555) using A. tumefaciens and standard methods known in the art. Four hundred explants were inoculated for each construct resulting in twelve containers per construct. A sterile PPO herbicide solution was used for herbicide tolerance testing. The herbicide solution consisted of 0.3 g of S-3100 in crop oil concentrate (5.0 mL) and 495 mL of deionized water. This was filtered through a 0.45 micron Nalgene® Rapid-Flow™ Tissue Culture Filter Unit and Surfactant-Free Cellulose Acetate membrane filter unit (VWR, Radnor, PA, USA). The resulting sterile solution was shaken before application.
At five weeks post-transformation, four of the twelve plant containers per construct were sprayed with two passes of the sterile PPO herbicide solution. The treated plantlets were then enclosed in the container and received at least 15 hours of light exposure post spray each day for four days. At the end of day four post application of S-3100, the treated plantlets were photographed and scored on a visual scale of green coloration (green coloration was representative of healthy photosynthetic plant tissue as compared to photo-bleached tissue) versus damage. The scoring values were 0 for poor tolerance, high damage, low green coloration; 1 for some tolerance, average damage, moderate green coloration; and 2 for good tolerance, low damage, high green coloration. The scoring for each construct is presented in Table 9, where n.d. indicates the analysis was not conducted.

[10] = test system: R0 soybean plants; assay: R0 transgenic soybean herbicide tolerance at eleven weeks; assay type: in vivo; conditions: R0 plants sprayed with S-3100 at eleven weeks, rated seven days after treatment
Protocol: The plantlets in the non-sprayed containers corresponding to constructs having a score of 2 were transplanted at approximately 7 weeks post transformation and grown as R0 plants using standard methods known in the art. Plantlets corresponding to non-tolerant scores of 0 and 1 were also grown to serve as negative controls. The R0 plants were grown in a greenhouse under long-day nursery conditions (18 hr light at 80° F. then 6 hr dark at 74° F.) for approximately four weeks. At eleven weeks, the R0 plants were sprayed with two passes of the same herbicide solution (0.3 g of 5-3100) described above. Herbicide injury ratings were collected seven days after treatment.
The results of the herbicide tolerance application at eleven weeks to the R0 plants confirmed the low percent injury rating scores observed in the high-throughput screen at five weeks. Any injury rating of 30% or above was equivalent to non-transgenic soybean injury ratings. A few of the constructs stood out as providing very good tolerance to the herbicide application. […] Data are provided in Table 10, where n.d. indicates the analysis was not conducted.

[11] = H_N10 (SEQ ID NO:4), construct 11

C#CCN1C(=O)COc2cc(F)c(N3C(=O)C4=C(CCCC4)C3=O)cc21 [flumioxazin]
average injury rating [1, 11]: 22%
highly tolerant plants (15% or less injury) [1, 11]: 9%
average injury rating ([1]; non-transgenic): 30%
highly tolerant plants (15% or less injury) ([1]; non-transgenic): no highly tolerant plants

H_N30 (SEQ ID NO: 5), microbial HemG protoporphyrinogen oxidase (Winslowiella toletana)
Km [2]: 1.0 µM

C=Cc1c2[nH]c(c1C)Cc1[nH]c(c(CCC(=O)O)c1C)Cc1[nH]c(c(C)c1CCC(=O)O)Cc1[nH]c(c(C)c1C=C)C2 [protoporphyrinogen, protoporphyrinogen IX]
Km [3]: 0.3 µM
Km [4]: 1.8 µM
Km [5]: 2 µM
Km [6]: 1.1 µM
Km [7]: 0.7 µM

H_N50 (SEQ ID NO: 7), microbial HemG protoporphyrinogen oxidase (Shimwellia blattae DSM 4481 = NBRC 105725)
Km [2]: 1.0 µM

H_N10 (SEQ ID NO: 4), E. coli wild-type HemG protoporphyrinogen oxidase (Escherichia coli CFT073)
Km [2]: 0.7 µM

H_N20 (SEQ ID NO: 2), microbial HemG protoporphyrinogen oxidase (Pantoea ananatis LMG 5342)
Km [2]: 0.8 µM

B1: H_N110: microbial HemG protoporphyrinogen oxidase, SEQ ID NO:10 (protein, listed as Enterobacter mori)
chain: MKILILFSTRDGQTREIAASLASELKEQAFDVDVVNLHRAENIAWEEYDGVVIGASIRYGHFHSTLNSFVKKHQQALKKLPGAFYSVNLVARKPEKRTPQTNSYTRKFLLDSPWQPDLSAVFAGALRYPRYNWYDRIMIRLIMKITGGETDTRKEVVYTDWQQVTHFAHEIVQLVRK
Average Injury [8]: 43.0%
Highly Tolerant (number of plants with less than 10% injury) [8]: did not produce any highly tolerant plants
injury rates when expressed in transgenic plants (crop tolerance to a PPO herbicide) [8]: reduced injury rates

B2: H_N40: microbial HemG protoporphyrinogen oxidase, SEQ ID NO:6 (SEQ ID NO:15 lacking start methionine) (protein, listed as Pectobacterium carotovorum)
chain: MKALIVFSSRDGQTRAIASYIANTLKGTLECDVVNVLNANDIDLSQYDRVAIGASIRYGRFHPAVNQFIRKHLTSLQQLPSAFFSVNLTARKPEKRTIQTNAYTRKFLLNSPWQPDLCCVFAGALRYPRYRWFDRVMIQLIMRITGGETDSTKEIEYTDWQQVARFAQDFAQLAAKNPA
coloration score ([9]; TP9): 0
coloration score ([9]; TP11): 1
coloration score ([9]; TP12): 1
coloration score ([9]; TP13): 1
coloration score ([9]; TP14): 2
coloration score ([9]; TP15): 2
coloration score ([9]; TP17): 1
coloration score ([9]; TP18): 1
coloration score ([9]; TP19): 1
coloration score ([9]; TP21): 2
coloration score ([9]; TP23): 1
coloration score ([9]; TP24): 0
coloration score ([9]; TP25): 2
coloration score ([9]; TP26): 1
coloration score ([9]; TP27): 1
coloration score ([9]; TP28): 1
coloration score ([9]; TP29): 1
coloration score ([9]; TP30): 1
coloration score ([9]; TP31): 1
coloration score ([9]; TP32): 1
coloration score ([9]; TP33): 0
Average Injury [8]: 47.0%
Highly Tolerant (number of plants with less than 10% injury) [8]: 53
injury rates when expressed in transgenic plants (crop tolerance to a PPO herbicide) [8]: reduced injury rates
percent injury score ([10]; TP1): 5%
percent injury score ([10]; TP13): 15%
percent injury score ([10]; TP14): 35%
percent injury score ([10]; TP15): 30%
percent injury score ([10]; TP21): 35%
percent injury score ([10]; TP25): 15%

B3: H_N60: microbial HemG protoporphyrinogen oxidase, SEQ ID NO:3 (protein, listed as Pantoea stewardii)
chain: MKALILYSTRDGQTRKIASSIADVIRQQQQCDVLNIKDASLPDWAQYDRVLIGASIRYGHFQPVVDKFVKQHLHELQQRTSGFFSVNLTARKPEKRSPETNAYTQKFLAHSPWQPDCCAVFAGALYYPRYRWFDRVMIQLIMRMTGGETDSTKEVEYTDWQQVSTFANDFAQLPGKS
Average Injury [8]: 55.8%
Highly Tolerant (number of plants with less than 10% injury) [8]: 19
injury rates when expressed in transgenic plants (crop tolerance to a PPO herbicide) [8]: reduced injury rates
